This note sets out measurements from PMC9315497, “Structural Analysis of Ino2p/Ino4p Mutual Interactions and Their Binding Interface with Promoter DNA”.

Where a chain is given by its changes, count along the chain named.

Data set [1] addresses T1, Ino2pDBD WT;Ino4pDBD WT (Saccharomyces cerevisiae (genomic DNA …, UniProt P26798;P13902 230-304;40-117, |)).
T1 sequence 1: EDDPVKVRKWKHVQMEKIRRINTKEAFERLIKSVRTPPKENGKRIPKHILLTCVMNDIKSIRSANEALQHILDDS
T1 sequence 2: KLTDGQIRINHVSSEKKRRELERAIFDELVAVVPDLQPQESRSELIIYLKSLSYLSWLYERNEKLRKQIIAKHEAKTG
Put plainly: EMSA; 20 mM Tris-HCl pH 8.0, 100 mM NaCl (buffer B); EMSA 1.5 uM DNA, 1.5-150 uM protein, 1 h on ice; ITC at 10 C, 400 uM DNA into 20 uM protein. The conditions noted are these: protein: recombinant;recombinant, tags: N-terminal His6;none (with His-Ino2p), copies: 1;1. On the technique in general: A gel shift assay detects complexes by their altered migration in electrophoresis.

Data set [2] addresses T2, Ino2pDBD WT;Ino4pMut (Saccharomyces cerevisiae (genomic DNA …, UniProt P26798;P13902 230-304;40-117, |H50A;E54A;R57A;R58A)).
T2 sequence 1: T1 sequence 1
T2 sequence 2: T1 sequence 2 with H11A, E15A, R18A, R19A
Description: ITC; 10 C; 20 mM Tris-HCl pH 8.0, 100 mM NaCl (buffer B); EMSA 1.5 uM DNA, 1.5-150 uM protein, 1 h on ice; ITC at 10 C, 400 uM DNA into 20 uM protein. To be noted: protein: recombinant;recombinant; tags: N-terminal His6;none; copies: 1;1; 14 bp with 5' overhang 1 nt at each end. Background: ITC needs no label: the signal is the heat of the interaction.

The target in data set [3] is T1, Ino2pDBD WT;Ino4pDBD WT. The description is as above. The conditions noted are these: protein: recombinant;recombinant; tags: N-terminal His6;none (with His-Ino2p); copies: 1;1; 14 bp with 5' overhang 1 nt at each end.
The target of data set [4] is T3, Ino2pMut;Ino4pDBD WT (Saccharomyces cerevisiae;Saccharomyces …, UniProt P26798;P13902 230-304;40-117, H241A;E245A;R249A;R273A|).
T3 sequence 1: T1 sequence 1 with H12A, E16A, R20A, R44A
T3 sequence 2: T1 sequence 2
The data set is described as above. The conditions noted are these: protein: recombinant;recombinant; tags: N-terminal His6;none (with His-Ino2p); copies: 1;1; 14 bp with 5' overhang 1 nt at each end.

B1: Flanking mutant promoter DNA (dsDNA)
DNA 1: GAGGGTCACATGCAG
DNA 2: CTGCATGTGACCCTC
B1: in data set [1], the binding result is reported as “binds”.

B2: 15bp-GC promoter DNA (dsDNA)
DNA 1: GATTTTCACATGCAG
DNA 2: CCTGCATGTGAAAAT
As for B2, the binding result in data set [2] and in data set [4] was “no binding” throughout. In addition, the Kd in data set [3] is 749 nM.

B3: 19bp-FAM promoter DNA (dsDNA)
DNA 1: GAATTTTCACATGCAGATC
DNA 2: GATCTGCATGTGAAAATTC
Take B3: the binding result in data set [1] (label: 5'-FAM on sense strand, blunt) is given as “binds”.

The Kd is the equilibrium constant for the complex coming apart.
